# Bridges are numbered along the chain shown (N, C = ends). Where no end group is shown, it is not given here.
# T1: recombinant human osteogenic protein-1 (rhOP-1, rhBMP-7) (human, UniProt P18075 293-431)
# T1 construct: Amine-coupled to a CM-5 sensor chip
# T1 sequence (looked up): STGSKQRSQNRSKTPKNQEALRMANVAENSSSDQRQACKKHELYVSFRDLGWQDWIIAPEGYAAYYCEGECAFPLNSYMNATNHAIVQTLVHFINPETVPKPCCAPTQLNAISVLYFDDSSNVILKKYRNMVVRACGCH
# T2: spp24 (secreted phosphoprotein, 24 kD), the parental protein of BBP (Bos taurus (Bovine), UniProt Q27967 24-203)
# T2 construct: also called the related protein
# T2 sequence: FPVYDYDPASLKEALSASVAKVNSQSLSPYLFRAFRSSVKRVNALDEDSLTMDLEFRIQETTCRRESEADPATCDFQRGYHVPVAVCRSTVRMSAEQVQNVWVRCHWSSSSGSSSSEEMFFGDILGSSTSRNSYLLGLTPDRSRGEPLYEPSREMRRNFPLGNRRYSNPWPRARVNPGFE
# B1: recombinant human bone morphogenetic protein-2 (rhBMP-2) (ligand, UniProt P12643 283-396, looked up)
# chain: QAKHKQRKRLKSSCKRHPLYVDFSDVGWNDWIVAPPGYHAFYCHGECPFPLADHLNSTNHAIVQTLVNSVNSKIPKACCVPTELSAISMLYLDENEKVVLKNYQDMVVEGCGCR
# notes: Amine-coupled to a CM-5 sensor chip
# Key:
# [1] = biological target: B1; test: cell-based or functional assay
# [2] = biological target: B1; test: SPR (Biacore X), rhBMP-2 on CM-5 chip, peptide as analyte; rhBMP-2 affixed to the chip; cyclized BBP, not reduced
# [3] = biological target: B1; test: SPR (Biacore X), ligand amine-coupled to CM-5 chip, Langmuir analysis
# Procedure: (§1) The supernatant was decanted and used for analyses. Protein concentrations were determined using UV spectroscopy at an absorbance of 280 nm. Extinction coefficients were calculated using ProtParam tool (www.expasy.ch/tools/protparam.html). Flow rates ranged from 5 to 50 μl/min, and injection volumes were 20 to 100 μl. To ensure uniformity, an effort was made to react sufficient ligand to the chip to give a baseline value of about 2500 RU (response units). The kinetic constants kₐ (on rate, association constant, “recognition”) and kd (off rate, dissociation constant, “stability”) as well as the equilibrium constant KD (equilibrium constant, “affinity”) were determined by a Langmuir analysis using BIAevaluation software (version 3.2) installed on the instrument by the manufacturer.
# [4] = biological target: recombinant human transforming growth factor-beta (rhTGF-β) (human); test: as above
# Sequence of recombinant human transforming growth factor-beta (rhTGF-β) (human) (P01137 279-390): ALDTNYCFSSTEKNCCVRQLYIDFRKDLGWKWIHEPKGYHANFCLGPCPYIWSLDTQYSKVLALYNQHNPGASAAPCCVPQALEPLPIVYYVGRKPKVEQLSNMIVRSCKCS
# Procedure: as §1
# [5] = biological target: T1, recombinant human osteogenic protein-1 …; test: as above
# Procedure: as §1
# [6] = biological target: T2, spp24 (secreted phosphoprotein, 24 kD), …; test: as above
# Procedure: as §1
retention of labeled rhBMP-2 in collagen sponge implants in rodent muscle pouches [1] [fold],Kd [2] [nM],Kd [3] [nM],Kd [4] [nM],Kd [5] [nM],Kd [6] [nM],koff [6] [s⁻¹],kon [6] [M⁻¹ s⁻¹],Binder
~2,~30000,53.3,68,1160,,,,"CRSTVRMSAEQVQNVWVRC (disulfide 1-19 (inferred), it is treated here as the same bovine cyclic peptide; also called cyclized BBP) [BMP Binding Peptide (BBP), cyclized synthetic 19 amino acid peptide]"
,,,,,17.7,0.0055,311000,B1

# Source: patent US20160000860A1 (University of California, published 2016)
